Data from IntAct's records for PubMed 17167421.

Target: syt2_rat Syt2 (UniProt P29101)

| Substance | effect of a mutation on the interaction |
| --- | --- |
| Botulinum neurotoxin type B (Clostridium botulinum) (from UniProt P10844) F1194A | disrupting interaction strength |
| Botulinum neurotoxin type B (Clostridium botulinum) (from UniProt P10844) K1192E | decreasing interaction strength |
| Botulinum neurotoxin type B (Clostridium botulinum) (from UniProt P10844) V1118D | decreasing interaction strength |
| Botulinum neurotoxin type B (Clostridium botulinum) (from UniProt P10844) F1204A | disrupting interaction strength |
